The experiment has as its target receptor-binding domain (RBD) of the SARS-CoV-2 spike (S) protein S1 region, His-tagged (SARS-CoV-2) (UniProt P0DTC2). Kind of experiment: SPR. (SPR reads the build-up and loss of mass on a sensor chip optically.)

For orientation: Kd means a measure of binding affinity in units of concentration. For orientation: koff means the first-order rate constant of dissociation. Read a low koff as a long-lived complex. A word on the kon: it is the rate constant with which the complex forms. Read a low kon as slower complex formation. On to “recombinant human integrin αvβ6 (from UniProt P06756 31-1048; P18564 22-709) (complex)”, for which the dissociation constant (Kd) was determined as 230 nM, the koff was found to be 0.0236 s⁻¹ and the kon came to 84000 M⁻¹ s⁻¹.

“recombinant human integrin αvβ3 (from UniProt P06756 31-1048; P05106 27-718) (complex)” gave a dissociation constant Kd of more than 500 nM.

The record behind these values is article doi:10.1101/2022.04.11.487882.
